Results published in publication PMC4653635, “Folding of newly translated membrane protein CCR5 is assisted by the chaperonin GroEL-GroES” (Scientific Reports, 2015).

Experiments:
Details in all cases: one partner purified
[1] = target: T1, Human CC chemokine receptor type 5 (CCR5), C-terminally 6 × His-tagged (human, UniProt P51681 1-352); experiment: quartz crystal microbalance (QCM); CCR5 made without added chaperonin; supernatant diluted 20 times and immobilised on a Q-Sense His-tag Capturing Sensor; CCL11 flowed over; 25 °C; 25 mM HEPES, 0.12 M NaCl, 0.2% Brij35, pH 7.6; 1:1 binding model
T1 construct: CC chemokine receptor type 5 (CCR5), human; 352 amino acids, 40.5 kDa as printed; cloned in pIVEX2.3d; The same construct was made with no chaperonin, with GroEL-GroES (0.04:0.08 uM) or with GroEL alone (0.04 uM) added to the cell-free reaction; these three samples are kept apart as assays; For one gel, BODIPY-labelled lysines were incorporated during translation; also called CCR5 receptor; …

[2] = target: T1, Human CC chemokine receptor type 5 …; experiment: quartz crystal microbalance (QCM); CCR5 made with GroEL-GroES added to the cell-free reaction; supernatant diluted 20 times and immobilised on a Q-Sense His-tag Capturing Sensor; CCL11 flowed over; 25 °C; 25 mM HEPES, 0.12 M NaCl, 0.2% Brij35, pH 7.6; 1:1 binding model
[3] = target: T1, Human CC chemokine receptor type 5 …; experiment: quartz crystal microbalance (QCM); CCR5 made with GroEL alone added to the cell-free reaction; supernatant diluted 20 times and immobilised on a Q-Sense His-tag Capturing Sensor; CCL11 flowed over; 25 °C; 25 mM HEPES, 0.12 M NaCl, 0.2% Brij35, pH 7.6; 1:1 binding model

T1 sequence (P51681 whole entry): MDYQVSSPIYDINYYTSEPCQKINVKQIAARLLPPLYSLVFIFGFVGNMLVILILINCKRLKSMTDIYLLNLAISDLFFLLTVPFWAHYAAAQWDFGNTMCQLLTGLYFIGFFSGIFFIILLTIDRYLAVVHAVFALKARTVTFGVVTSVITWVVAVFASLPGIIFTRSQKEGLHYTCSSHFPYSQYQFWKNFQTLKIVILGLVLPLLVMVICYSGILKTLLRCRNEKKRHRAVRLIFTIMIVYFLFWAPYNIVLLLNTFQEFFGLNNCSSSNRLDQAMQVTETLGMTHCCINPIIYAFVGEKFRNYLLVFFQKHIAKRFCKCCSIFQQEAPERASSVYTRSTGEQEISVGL

Kd [1]: 97 nM
koff [1]: 0.00046 s⁻¹
kon [1]: 4700 M⁻¹ s⁻¹
Kd [2]: 44 nM
koff [2]: 0.0002 s⁻¹
kon [2]: 4500 M⁻¹ s⁻¹
Kd [3]: 55 nM
koff [3]: 0.00025 s⁻¹
kon [3]: 4600 M⁻¹ s⁻¹
B1: eotaxin (CCL11) (ligand)
chain: not shown
notes: eotaxin (CCL11)
